The results in this text go back to a protein production outcome set (Wang et al. 2014).

This series is described as follows: label from the status in PepcDB records.
In the case of “MSLTINVGLLVDETGPTSDVGKGYSLGAELAFKYFNEKGIYTKDGVRVNINYIKRDYAYNPTTAEEYYREFRDRYGVIAIIGWGTADTEKLSDQVDTDKITYISASYSAKLLVKPFNFYPAPDYSTQACSGLAFLASEFGQGKLALAYDSKVAYSRSPIGAIKKAAPSLGLQVVGDYDLPLRATEADAERIAREMLAADPDYVWCGNTISSCSLLGRAMAKVGLDAFLLTNVWGFDERSPQLIGEGGYGKVFGISPFIYPMFGQDVEGIQTIFEAARMNGVSEDQINLRVVQGFVNVWLLIKAIESVTSQDLQERGGEALKEALEANTFDLGGITADTIDYEPGFHLAYRKVFIIKLGENGELQLMGKFEAPSQVDCARYTIEEGHHHHHH”, the protein production result is given as “not failed”.
Take “MRFKAIFVRVTKELLRDKRTLALMLVAPVLVLTLMYFIFDTNNDVNLEVGVDESVPNKIVNALPSDKVKIKEYDSPSSIKKTIVNSDLDAYIEKKGDKLDVTYKNENPSNTGTTKQLLGSAIQKNKLQDMAKVINKIPSNIKQGNSAQGEQITLDNHYLYGNSDSTFFDKMFPILIGFFVFFFVFLISGIALLRERTKGTLERLLATSVKRSEIVFGYLAGYGMFAVLQTLIIVFYAIYLLKIDVAGSIWWVLLINILIALSALAMGIFVSTFANSEFQMVQFIPLVVIPQVFFSGIIPLDNVADWVSSIGYIFPLRYAGDALTNIMIKGEGFNNIWFDLSILLVFIIGFTVLNIIGLKRYRKV”: the protein production entry was “not failed”.
On to “MTELATMEFHAQPQAGEPKPWAFPAPERGSLDNGLTVLRCHRPGQQVVAVEVLLDAPLDAEPAGLDGVATIMARAFSEGTDKHSAEDFAAELERCGATLDAHADHPGVRLSLEVPASRLGKALGLLADALRAPAFADGEVERLVRNRLDEIPHELANPSRRAAKELSKELFPADARMSRPRQGTEETVETIDSAAVRAFYERHVRPATATAVVVGDLTGVDLDALLADTLGAWTGSAAEPRPVPPVTADDRGRVVIVDRPGAVQTQLLIGRTGADRHDRVWPAQVLGTYCLGGTLTSRLDRVLREEKGYTYGVRAFGQVLRSAPDGTGAAMLAISGSVDTPNTGPALEDLWTVLRKLAAEGLTDAERDVAVQNLVGVAPLKYETAAAVASTLADQVEQHLPDDFQATLYRQLAATGTVEATAAVVNAFPVDRLVTVLVGDAAQIKEPVEALGIGEVTVVAAE”, for which the protein production result is “failed”.
Turning to “MLKSILKVAVISTIGLSTVACTVNDQRIARYGVGGAAIGALAGTAIAGSTPEAALTGAAVGAIAGSVTGAAVNQQRQQRQRQQRQIVAPHPAMCTYRNRKGQVYSAPCAQKVQTPQLCTYRDGRGVMYQAPCPQRVR”, the protein production result is listed as “failed”.
The entry for “MMPDKKGYIIDIDGVIGKSVTPIPEGVEGVKKLKELGKKIIFVSNNSTRSRRILLERLRSFGLEVGEDEILVATYATARFIAREKPNAKVFTTGEEGLIEELRLAGLEIVDYDEAEYLVVGSNRKINFELMTKALRACLRGIRYIATNPDRIFPAEDGPIPGTGMIIGALYWMTGREPDVVVGKPSEVIMREALDILGLDAKDVAVVGDQIDVDVAAGKAIGAETVLVLTGVTTRENLDQMIERHGLKPDYVFNSLKDMVEALEG” is “not failed”; for “MNVTPWEVEGVIDYSKLIEEFGMQPFSEVLPEIDNPHILMRRGAIFGHRDYWRIIEAMQKKEPWAVMSGFMPSGLPHFGHKMTMDEIVWHQSAGGKAFVAIADMEAHSVRGLSWEKTRELGMLYIKSIIALGLREDAVIYFQSKSSHVKDLAFELSAEVNFSELRAIYGFNSDTSLAKMFVTAIQAADILHPQLSDFGGPKPVVVPVGADQDPHMRLTRDLAARISIFSFEPVEGGVRVRSRKGAEYLSSLRDLEFDKKIYEEHMDIFGEAEEIERAVRKIEVEIGGFAFIPPSSTYHRFTTGLTGGKMSSSKPESYISLLDPPEEGAKKVMKAFTGGRATAEEQRRLGGEPDRCVVFELYSFHLIDSDEELNQIEAECREGRLLCGKCKKMAAELVKSFLKEHQEKMEAVDLSNYTIIG” it is “failed”; for “MYESANVSDDADRTAFRRAEKKYKLYYEQDSKFSRKKKLPKPIDLSELLDFNLISQNFNNDGVLPDGIRVSKVDSSPVFCIDNRPGFYFIPDALSLKEQCKWIKESLTSFPQPPNRTNHNAIYGPIDDLFDSAKENKVLVQDDLTNNKWKFYEEVDIEKATRSSCKSVSASVLLRKLRWSTLGLQFDWSKRNYDVSLPHNNIPDALCQLAKTHAAIAMPDGEEFRPEGAIVNYFGIGDTLGGHLDDMEADWSKPIVSMSLGCKAIFLLGGKSKDDPPHAMYLRSGDVVLMAGEARECFHGNLLHFQLDGIPRIFTGEENADIGALESELSHESGHFFAEYIKTSRININIRQVF” it is “failed”.
With “MSLGGNGREKDHASELRSIFSLKKIADAVNGYEEAKYVVFGIPFDNTSSYRRGSKYAPDSIRGAYVNLESYEYSYGIDLLASGMADLGDMEESEDVEYVIDTVESVVSAVMSDGKIPIMLGGEHSITVGAVRALPKDVDLVIVDAHSDFRSSYMGNKYNHACVTRRALDLLGEGRITSIGIRSVSREEFEDPDFRKVSFISSFDVKKNGIDKYIEEVDRKSRRVYISVDMDGIDPAYAPAVGTPEPFGLADTDVRRLIERLSYKAVGFDIVEFSPLYDNGNTSMLAAKLLQVFIASREKYYKEHIEGHHHHHH”, the protein production result was “not failed”.
For “MNTPQFNKIAVLVATLLISALFLTMIRQFLVTILLAGIFTGLAYPLFSRFITLTRGHRSLSASMTLVIFFMMVFLPLLAVFTVVILQAVSLSSTAIPLIREQLRDPEGFLRMLSSLPFYKDIESYSDLILEKAAEILGNLGSSVLSSFSAITWTAIYDLVLFIIFWYTMFFLLRDGHELLERIKYYLPLNESDQRRLFDRFVSVTRASLKGSLIIAVIQGTLAGLAFYVAGINQAVFWGAIMAMLSLLPLIGSPIIWVPAVIILALSGNYAQAIGLFLFCSIIVGQIDNVLRPILVGRDTSMHELFIFFGTLGGIGMFGLPGFIIGPVVAALFVTVWDIYGETFNESLIERRSGGGQAAGSDGSAP”, the protein production entry was “failed”.
In the case of “MAHHHHHHMNPHPVEPRDQIAELLVESPLFSFNCAHFIAFKGFRETLHGHNYNVSLRLRGNIQGDGYVIDFSILKEKVRKVCKQLDHHFILPMYSDVLNIQEVNDNFKITCEDNSEYSFPKRDCVQIPIKHSSTEEIGLYILNQLIEEIDLPFLKTRSVNYMEVTVSESPSQKATVHRNI” it was “not failed”; in that of “MADSKSFTFELNESVLTAQVGRLDEMAMVVEQRFSELKMTIEDVGNADPGSKISESLGGLQSGLGTISSAFGQLGSSSEAITSGFGTAVGSVGGITDAFKNLGSSVQNGTLFSSLATGIGGMSTMLGGVSGGVQGITNLASGFMELKNHLGGLMSSIGGVGGIMGKLTSPMGLVIIGIVALVAAFAYLMTTNESFRNTVMSVVTQVAQLFGQLVASLMPIIMQIVTAVMQIGAALMPMVMQFISFFAQLLAQLMPFINMLISMLMPVIMQIVQVVMSLVSALLPSIMTVIQGIMSVIQFLIPIIMQIATVVVQIVVTIISYISKIMPIVMTIIGVIVSIITTIISYVVIIATTIASVIGKIISFIASVITAVIGIVQPIIAFITNIFTTIVTIIGAAFQMVFTVASKIWNSIMSTISGIIDGIKAVITGISTTVSSVFNGVKRIITGVFDGIKSAWGGLTDFVGNIFDGVSSAIQTVVDNVKGFVNVVIRGINGAIGLINKIPGVEIGKIPQLISGTTNFQGGFARMNEGGRGEMVVLPSGSQVIPHDATMKYARESARGNKSMLYTSQGADLARVENLLERLLQKNPVIKMDDKVVAEVVSRNQANSFDQYNYTMGGAAYS”, “not failed”; in that of “MPYERKIINDPVFGFINIPKGLLYDIVRHPLLQRLTRIKQVGLSSVVYPGAQHTRFQHSLGAFYLMSEAITQLTSKGNFIFDSEAEAVQAAILLHDIGHGPFSHVLEDTIVQGVSHEEISLMLMERMNKEMNGQLSLAIQIFKDEYPKRFLHQLVSGQLDMDRLDYLRRDSFYTGVTEGNIGSARIIKMLDVADDRLVIESKGIYSIENFLTARRLMYWQVYLHKTSVAYERMLISTLLRAKELASQGVELFASPALHFFLYNDINHTEFHNNPDCLENFIQLDDNDIWTALKVWSNHPDKVLSTLSLGMINRNIFKVENSAEPIGEDRIKELTLQISQQLGITLSEANYFVSTPSIEKNMYDPADDSIDIIYKDGTIKNIAEASDMLNISLLSKKVKKYYLCYQRLHR”, “not failed”.
Take “MRQSYRTPLLASLLVLICAVVLWNAYEWFQGRYLRAFSEHTAMFSGDPLQLPAELAGPGAIRLVHFWDPACPCNVGNQQHLAELIEAYSPRGVEFYAVQKPGSHGQLPATLSRLKHLDSLPGAEQIPASPAVAIWDRNGKLAYFGPYSEGLTCNSSNSFIEPILQALEDNRPVSATHTLAIGCYCPWPA”: the protein production entry was “failed”.
The entry for “MNNPGLFQARWNLGKLVLCNLLPLALLGFWLWPTGQALCTVFDEWLFHHLNAPLASNSTWLHIWAVASLRPFDIVVGLIMLGLLIRGDWVFKAVDVRRAFFGFLSILILMVVIRALFSKLVAVMNWQHNSPSMVLEGAVHMSDYFPGWEKTWELKDRSSQSFPGDHASVLLIWGLFMGIFSRSIGQFLIVWGLTLLFMMPRLVAGAHWGQDDYIGGVLLAVLALGWGYYTPYAARMSNFLLRLTHPLFNLLSRMPVLSRMSVVRASSLLR” is “failed”; for “MIRKKQTEKPSEWDPPAPSTVYIKIKNIPYETFKTKLNQGLVTTDLDQIRYRLEKHIYCCGVCSKHVNGYCVITNRKAEPGWICKSFVPKEEFIYLDSRPDRKDPAEFRYLSETGLEKDYIESAGARERRHGNEGTKALYDEGVTLYRQGRLKLALEAFDSVLEANPLDFAALFHKGNALLKLKRYEEALEVFERASEINQENAGLWTNLGFIFTKLERFRDSLEAFEKSISLNPVQKNAWEGRDAVIARVRLCEERLRESEEALKKNPEDPDTLFKIGKIHLRLGEQEKAIQAFKKALEIKPENAEAWQFRGKVLFKAGSEKEALHAFEKATRLKPDYAEAWFEKGNAFLKLENLKGAENAFKIAARLWDSKGIKSKAESARDKVKRLHSSN” it is “failed”; for “MEQVSKSHENKAEEQTEGVGLLERLFKLSQHKTTVKTELMAGLTTFVTMSYIMFLNPIIMSKTGMPFDGLFLATCLGAAIATILMGMYANWPVGLAPGMGLNAFFTFSVVGSMGYSWQIALGAVFLSGVIFVLMSVTRLREWMLDSIPMSLRLAMTAGVGLFLGFIGLRFTGIVVANPDNVVALADMTHFGFGQFGPEAPALGFLSFLLIAILSYRKVFGAVLIGIAVTTFIAFAMTWVLPTDFFVVAEAAKSFAPASGFVAYKGLLAIPEFSALEPILWKADIVGAFEVALIPVIVTFLFVNIFDTAGTLMGVAERANLQDENGKIEGLSKSLKADSISSVIGTAFGCPPVTSYVESAAGVAAGGRTGLTAVTIGLLFAAGVFFLPLAQMLPGFAVDGALIYVAMLMMSSLRGLDWDDLTEYAPAVCTTVMMAFTFSIANGIAFGFITYTVLKVGAGKSSQVSNGVWALTVLFVAKFIFLN” it is “failed”.
The entry for “MAKKNKRSQQKNKCLKPEKDPSTVKRLLEDPPRKKRYLQPLENPPTESYGDDEKMETEEEGEKYLGKNLPASAFIIVAAERHDSDSYSETELEKKICGSVVVAKMNDDKMVSTDTKKKYFQRILSDDDKIVLLQGMVDFQNDKGTISYDDMTGFIDTVKNIISFQANSRQFTTKIRRLKDKFVQKRNKGVDENSLANVEIYEI” is “failed”; for “MESWLFLLLIALIAFVAKNQSLLIASVVVLALKALPNSAKIMSWLSDKGINLGVTIISITILVPIATGQIGLKDLIQSFKTPMGWLGILCGILVAVLSSKGVGLINQSPEITVALVFGTILGVVFLKGIAAGPIIASGMMYVIITTFQAFQH” it is “failed”.
